Measured values as given in doi:10.1101/266718 (bioRxiv, 2018).

Molecular target: T1, Dcp1:Dcp2(1-504) (S. pombe, UniProt Q9P805 1-127; O13828 1-504)
T1 sequence (looked up) 1: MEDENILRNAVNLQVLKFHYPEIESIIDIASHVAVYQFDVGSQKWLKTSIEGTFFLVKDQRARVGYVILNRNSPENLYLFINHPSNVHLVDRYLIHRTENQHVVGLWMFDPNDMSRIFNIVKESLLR
T1 sequence (looked up) 2: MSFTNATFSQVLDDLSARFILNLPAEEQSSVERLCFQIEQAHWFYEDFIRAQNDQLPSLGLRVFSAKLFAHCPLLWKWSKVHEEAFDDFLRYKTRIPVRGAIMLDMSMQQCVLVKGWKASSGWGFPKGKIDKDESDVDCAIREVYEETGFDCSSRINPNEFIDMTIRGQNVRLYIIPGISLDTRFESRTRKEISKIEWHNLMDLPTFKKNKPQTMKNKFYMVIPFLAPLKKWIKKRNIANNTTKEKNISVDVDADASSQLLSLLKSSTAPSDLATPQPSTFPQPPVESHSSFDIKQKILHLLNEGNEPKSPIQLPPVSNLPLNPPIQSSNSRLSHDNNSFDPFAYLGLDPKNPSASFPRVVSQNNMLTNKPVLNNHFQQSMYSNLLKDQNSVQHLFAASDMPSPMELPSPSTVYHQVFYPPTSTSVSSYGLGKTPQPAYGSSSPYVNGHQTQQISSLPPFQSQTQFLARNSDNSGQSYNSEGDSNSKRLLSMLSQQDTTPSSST
Assay: cell-based or functional assay

stimulation of the decapping rate of Dcp1:Dcp2ext by excess Edc3: 30 fold
B1: Edc3 (natural protein, S. pombe, UniProt O94752 1-454, looked up)
chain: MSVADFYGSNVEVLLNNDSKARGVITNFDSSNSILQLRLANDSTKSIVTKDIKDLRILPKNEIMPKNGTKSPSTNSTKLKSAETYSSKNKWSMDCDEEFDFAANLEKFDKKQVFAEFREKDKKDPAKLLVSHNKSPNRNYHHKQNVLGPSVKDEFVDLPSAGSQINGIDAVLSSSSNGHVTPGSKKGSRETLKKKPFVDENIPAELHTTTGDILKPITPEQLSQGIALAIAKTSTDIVVENAAQLLSQFVFSVLGGHKRLSSRNHNSQPLVCILVGSHDHASAAVAAGRRLCAIGIKVVLRLLTPFNVDNRQLLMFQAAGGYIPTENFDQFLNKLTSPIELVVDVLTGFHPSIDKNSHALIQWANDLNVLILSVDIPSGYTVQKKNTAILPKWTLALGAVTTTLAQAALVKQAAGVSVFVGNLGTGSQTWAELGILESQVTGQYLAQISCTSTN
